Sequences and labels used below:
T1: human IL-10 receptor (hIL-10R alpha and beta chains) on HEK-Blue IL-10 reporter cells (human, UniProt Q13651 22-578; Q08334 20-325)
T1 sequence 1: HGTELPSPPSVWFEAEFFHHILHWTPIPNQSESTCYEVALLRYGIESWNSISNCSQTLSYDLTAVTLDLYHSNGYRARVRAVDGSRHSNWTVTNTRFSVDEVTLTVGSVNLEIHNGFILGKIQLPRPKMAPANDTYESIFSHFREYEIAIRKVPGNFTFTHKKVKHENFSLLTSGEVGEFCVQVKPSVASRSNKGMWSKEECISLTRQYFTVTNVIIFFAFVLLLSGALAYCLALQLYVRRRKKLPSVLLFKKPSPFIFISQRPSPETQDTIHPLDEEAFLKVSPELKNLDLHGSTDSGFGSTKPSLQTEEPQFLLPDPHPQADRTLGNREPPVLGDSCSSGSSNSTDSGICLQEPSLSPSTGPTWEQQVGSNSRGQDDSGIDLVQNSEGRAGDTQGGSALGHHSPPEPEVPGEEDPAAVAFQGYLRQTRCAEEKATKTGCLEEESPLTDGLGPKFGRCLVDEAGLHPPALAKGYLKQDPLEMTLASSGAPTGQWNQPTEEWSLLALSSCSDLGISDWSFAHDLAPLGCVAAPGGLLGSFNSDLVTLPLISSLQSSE
T1 sequence 2: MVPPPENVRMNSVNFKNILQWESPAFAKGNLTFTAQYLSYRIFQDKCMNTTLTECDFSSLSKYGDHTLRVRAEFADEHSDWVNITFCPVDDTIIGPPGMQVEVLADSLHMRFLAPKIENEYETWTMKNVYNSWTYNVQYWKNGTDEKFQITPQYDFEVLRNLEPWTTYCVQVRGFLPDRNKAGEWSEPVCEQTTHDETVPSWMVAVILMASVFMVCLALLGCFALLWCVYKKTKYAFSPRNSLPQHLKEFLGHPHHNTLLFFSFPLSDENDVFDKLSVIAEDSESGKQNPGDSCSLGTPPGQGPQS

B1: IL10R binding molecule of SEQ ID NO: 345 (bispecific antibody)
chain: QVQLQESGGGSVQAGGSLRLSCAASGYSYSSYCMGWFRQAPGKEREGVATIDSDGMTRYADSVKGRFTISKDNAKNTLYLQMNSLKPEDTAMYYCAAPLYDCDSGAVGRNPPYWGQGTQVTVSSGGGSQVQLQESGGGSVQAGGSLRLSCGASGYTYSSYCMGWFRQVPGKEREGVAVIDSDGSTSYADSVKGRFTISKDNGKNTLYLQMNSLKPEDTAMYYCAADLGHYRPPCGVLYLGMDYWGKGTQVTVSSASHHHHHH
B2: IL10R binding molecule of SEQ ID NO: 343 (bispecific antibody)
chain: QVQLQESGGGSVQAGGSLRLSCAASGYSYSSYCMGWFRQAPGKEREGVATIDSDGMTRYADSVKGRFTISKDNAKNTLYLQMNSLKPEDTAMYYCAAPLYDCDSGAVGRNPPYWGQGTQVTVSSGGGSQVQLQESGGGSVQAGGSLRLSCAVSGYAYSTYCMGWFRQAPGKEREGVAAIDSGGSTSYADSVKGRFTISKDNAKNTLYLRMNSLKPEDTAMYYCAAVPPPPDGGSCLFLGPEIKVSKADFRYWGQGTQVTVSSASHHHHHH
B3: IL10R binding molecule of SEQ ID NO: 346 (bispecific antibody)
chain: QVQLQESGGGSVQAGGSLRLSCAASGYSYSSYCMGWFRQAPGKEREGVATIDSDGMTRYADSVKGRFTISKDNAKNTLYLQMNSLKPEDTAMYYCAAPLYDCDSGAVGRNPPYWGQGTQVTVSSGGGSQVQLQESGGGSVQAGGSLRLSCAASGYSNCSYDMTWYRQAPGKEREFVSAIHSDGSTRYADSVKGRFFISQDNAKNTVYLQMNSLKPEDTAMYYCKTDPLHCRAHGGSWYSVRANYWGQGTQVTVSSASHHHHHH
B4: IL10R binding molecule of SEQ ID NO: 344 (bispecific antibody)
chain: QVQLQESGGGSVQAGGSLRLSCAASGYSYSSYCMGWFRQAPGKEREGVATIDSDGMTRYADSVKGRFTISKDNAKNTLYLQMNSLKPEDTAMYYCAAPLYDCDSGAVGRNPPYWGQGTQVTVSSGGGSQVQLQESGGGSVQAGGSLRLSCTVSGYTYSSNCMGWFRQAPGKEREGVATIYTGGGNTYYADSVKGRFTISQDNAKNTVYLQMNNLKPEDTAMYYCAAEPLSRVYGGSCPTPTFDYWGQGTQVTVSSASHHHHHH
B5: IL10R binding molecule of SEQ ID NO: 348 (bispecific antibody)
chain: QVQLQESGGGSVQTGGSLRLSCAASGYTYLRGCMGWFRQAPGKEREGVAVMDVVGDRRSYIDSVKGRFTISRDNAANSVYLQMDNLKPEDTAMYYCTAGPNCVGWRSGLDYWGQGTQVTVSSGGGSQVQLQESGGGSVQAGGSLRLSCAASRFTYSSYCMGWFRQAPGKEREGVASIDSDGSTSYTDSVKGRFTISKDNAKNTLYLQMNSLKPEDTAMYYCALDLMSTVVPGFCGFLLSAGMDYWGKGTQVTVSSASHHHHHH
B6: IL10R binding molecule of SEQ ID NO: 349 (bispecific antibody)
chain: QVQLQESGGGSVQTGGSLRLSCAASGYTYLRGCMGWFRQAPGKEREGVAVMDVVGDRRSYIDSVKGRFTISRDNAANSVYLQMDNLKPEDTAMYYCTAGPNCVGWRSGLDYWGQGTQVTVSSGGGSQVQLQESGGGSVQAGGSLRLSCAASGYTYSMYCMGWFRQAPGKEREGVAQINSDGSTSYADSVKGRFTISKDNAKNTLYLQMNSLKPEDTAMYYCAADSRVYGGSWYERLCGPYTYEYNYWGQGTQVTVSSASHHHHHH
B7: IL10R binding molecule of SEQ ID NO: 347 (bispecific antibody)
chain: QVQLQESGGGSVQTGGSLRLSCAASGYTYLRGCMGWFRQAPGKEREGVAVMDVVGDRRSYIDSVKGRFTISRDNAANSVYLQMDNLKPEDTAMYYCTAGPNCVGWRSGLDYWGQGTQVTVSSGGGSQVQLQESGGGSVQAGGSLRLSCAASRYLYSIDYMAWFRQSPGKEREPVAVIYTASGATFYPDSVKGRFTISQDNAKMTVYLQMNSLKSEDTAMYYCAAVRKTDSYLFDAQSFTYWGQGTQVTVSSASHHHHHH

The target of the experiment is T1, human IL-10 receptor (hIL-10R alpha and …). The experiment is described as follows: cell-based or functional assay.
Regarding B1, the “Abs 630 (25 nM)” value amounted to 0.52 Abs 630 and the “Abs 630 (100 nM)” value came out at 0.44 Abs 630.

As for B2, the “Abs 630 (25 nM)” value stood at 0.46 Abs 630 and the “Abs 630 (100 nM)” value was found to be 0.37 Abs 630.

B3: the “Abs 630 (25 nM)” value turned out to be 0.43 Abs 630 and the “Abs 630 (100 nM)” value worked out at 0.35 Abs 630.

B4: the “Abs 630 (25 nM)” value stood at 0.5 Abs 630 and the “Abs 630 (100 nM)” value was found to be 0.43 Abs 630.

B5: the “Abs 630 (25 nM)” value came out at 0.46 Abs 630 and the “Abs 630 (100 nM)” value worked out at 0.36 Abs 630.

In the case of B6, the “Abs 630 (25 nM)” value was 0.46 Abs 630 and the “Abs 630 (100 nM)” value came out at 0.38 Abs 630.

As to B7, the “Abs 630 (25 nM)” value was 0.45 Abs 630 and the “Abs 630 (100 nM)” value was determined as 0.35 Abs 630.
